These results are taken from US20240034774A1 (Gilead, published 2024).

One test addresses BSA (UniProt P02769 25-607). Description: single-point ELISA, BSA control. For orientation: ELISA stands for enzyme-linked immunosorbent assay.
Another test addresses gp120 Bal (HIV (Bal)). The test is described as follows: single-point ELISA at EC50 conc. of A-1.
In the next test the target is gp120 SHIV SF162 P3 (SHIV SF162 P3). The test is described as follows: single-point ELISA at EC50 conc. of A-1.
The next test concerns the target gp120 CAAN (HIV (CAAN)). Description: single-point ELISA at EC50 conc. of A-1.

B1: 1.32.31-1 (antibody, human IgG1, kappa)
heavy: QVQLVQSGAEVTKPGASVRVSCEASGYNIRDYFIHWWRQAPGQGLQWVGWINPKTGQPNNPRQFQGRVSLTRHASWDFDTFSFYMDLKALRSDDTAVYFCARQRTDYWDFDVWGSGTQVTVSSASTKGPSVFPLAPSSKSTSGGTAALGCLVKDYFPEPVTVSWNSGALTSGVHTFPAVLQSSGLYSLSSVVTVPSSSLGTQTYICNVNHKPSNTKVDKKVEPKSCDKTHTCPPCPAPELLAGPDVFLFPPKPKDTLMISRTPEVTCVVVDVSHEDPEVKFNWYVDGVEVHNAKTKPREEQYNSTYRVVSVLTVLHQDWLNGKEYKCKVSNKALPLPEEKTISKAKGQPREPQVYTLPPSREEMTKNQVSLTCLVKGFYPSDIAVEWESNGQPENNYKTTPPVLDSDGSFFLYSKLTVDKSRWQQGNVFSCSVLHEALHSHYTQKSLSLSPGK
light: DIQMTQSPSSLSASVGDTVTITCQANGYLNWYQQRRGKAPKLLIYDGSKLERGVPSRFSGRRWGQEYTLTISSLQPEDIATYFCQVYEFVVPGTNLDLKRTVAAPSVFIFPPSDEQLKSGTASVVCLLNNFYPREAKVQWKVDNALQSGNSQESVTEQDSKDSTYSLSSTLTLSKADYEKHKVYACEVTHQGLSSPVTKSFNRGEC
Take B1: the “ELISA A450” value in the test with BSA turned out to be 0.07 A450; with gp120 Bal, 0.95 A450; with gp120 SHIV SF162 P3, 0.66 A450; with gp120 CAAN, 0.9 A450.

B2: 1.33.1-1 (antibody, human IgG1, kappa)
heavy: QVQLVQSGAEVKKPGASVRVSCKASGYNIRDYFIHWWRQAPGQGLQWVGWINPKTGQPNNPRQFQGRVTLTRHASWDFDTFSFYMDLKALRSDDTATYFCARQRSDYWDFDVWGSGTQVTVSSASTKGPSVFPLAPSSKSTSGGTAALGCLVKDYFPEPVTVSWNSGALTSGVHTFPAVLQSSGLYSLSSVVTVPSSSLGTQTYICNVNHKPSNTKVDKKVEPKSCDKTHTCPPCPAPELLAGPDVFLFPPKPKDTLMISRTPEVTCVVVDVSHEDPEVKFNWYVDGVEVHNAKTKPREEQYNSTYRVVSVLTVLHQDWLNGKEYKCKVSNKALPLPEEKTISKAKGQPREPQVYTLPPSREEMTKNQVSLTCLVKGFYPSDIAVEWESNGQPENNYKTTPPVLDSDGSFFLYSKLTVDKSRWQQGNVFSCSVLHEALHSHYTQKSLSLSPGK
light: DIQMTQSPSSLSASVGDTVTITCQANGYLNWYQQRRGKAPKLLIYDGSKLERGVPSRFSGRRWGQEYNLTINNLQPEDIATYFCQVYEFVVPGTRLDLKRTVAAPSVFIFPPSDEQLKSGTASVVCLLNNFYPREAKVQWKVDNALQSGNSQESVTEQDSKDSTYSLSSTLTLSKADYEKHKVYACEVTHQGLSSPVTKSFNRGEC
Consider B2, for which the “ELISA A450” value with BSA is 0.06 A450; with gp120 Bal it was 0.88 A450; with gp120 SHIV SF162 P3, 0.96 A450; in the test with gp120 CAAN it was 0.98 A450.

B3: 1.33.32-1 (antibody, human IgG1, kappa)
heavy: QVQLVQSGAEVKKPGASVRVSCKASGYNIRDYFIHWWRQAPGQGLQWVGWINPKTGQPNNPRQFQGRVTLTRHASWDFDTFSFYMDLKALRSDDTATYFCARQRSDYWDFDVWGSGTQVTVSSASTKGPSVFPLAPSSKSTSGGTAALGCLVKDYFPEPVTVSWNSGALTSGVHTFPAVLQSSGLYSLSSVVTVPSSSLGTQTYICNVNHKPSNTKVDKKVEPKSCDKTHTCPPCPAPELLAGPDVFLFPPKPKDTLMISRTPEVTCVVVDVSHEDPEVKFNWYVDGVEVHNAKTKPREEQYNSTYRVVSVLTVLHQDWLNGKEYKCKVSNKALPLPEEKTISKAKGQPREPQVYTLPPSREEMTKNQVSLTCLVKGFYPSDIAVEWESNGQPENNYKTTPPVLDSDGSFFLYSKLTVDKSRWQQGNVFSCSVLHEALHSHYTQKSLSLSPGK
light: DIQMTQSPSSLSASVGDTVTITCQANGYLNWYQQRRGKAPKLLIYDGSKLERGVPSRFSGRRWGQEYTLTISSLQPEDIATYFCQVYEFVTPGTRLDLKRTVAAPSVFIFPPSDEQLKSGTASVVCLLNNFYPREAKVQWKVDNALQSGNSQESVTEQDSKDSTYSLSSTLTLSKADYEKHKVYACEVTHQGLSSPVTKSFNRGEC
B3: the “ELISA A450” value with BSA came to 0.07 A450; with gp120 Bal, 0.98 A450; in the test with gp120 SHIV SF162 P3, 0.98 A450; with gp120 CAAN, 1.13 A450.

B4: 1.32.32-1 (antibody, human IgG1, kappa)
heavy: QVQLVQSGAEVTKPGASVRVSCEASGYNIRDYFIHWWRQAPGQGLQWVGWINPKTGQPNNPRQFQGRVSLTRHASWDFDTFSFYMDLKALRSDDTAVYFCARQRTDYWDFDVWGSGTQVTVSSASTKGPSVFPLAPSSKSTSGGTAALGCLVKDYFPEPVTVSWNSGALTSGVHTFPAVLQSSGLYSLSSVVTVPSSSLGTQTYICNVNHKPSNTKVDKKVEPKSCDKTHTCPPCPAPELLAGPDVFLFPPKPKDTLMISRTPEVTCVVVDVSHEDPEVKFNWYVDGVEVHNAKTKPREEQYNSTYRVVSVLTVLHQDWLNGKEYKCKVSNKALPLPEEKTISKAKGQPREPQVYTLPPSREEMTKNQVSLTCLVKGFYPSDIAVEWESNGQPENNYKTTPPVLDSDGSFFLYSKLTVDKSRWQQGNVFSCSVLHEALHSHYTQKSLSLSPGK
light: DIQMTQSPSSLSASVGDTVTITCQANGYLNWYQQRRGKAPKLLIYDGSKLERGVPSRFSGRRWGQEYTLTISSLQPEDIATYFCQVYEFVTPGTRLDLKRTVAAPSVFIFPPSDEQLKSGTASVVCLLNNFYPREAKVQWKVDNALQSGNSQESVTEQDSKDSTYSLSSTLTLSKADYEKHKVYACEVTHQGLSSPVTKSFNRGEC
Take B4: the “ELISA A450” value worked out at 0.08 A450 in the test with BSA, 0.89 A450 with gp120 Bal, 0.7 A450 with gp120 SHIV SF162 P3 and 0.9 A450 with gp120 CAAN.

B5: 1.32.34-1 (antibody, human IgG1, kappa)
heavy: QVQLVQSGAEVTKPGASVRVSCEASGYNIRDYFIHWWRQAPGQGLQWVGWINPKTGQPNNPRQFQGRVSLTRHASWDFDTFSFYMDLKALRSDDTAVYFCARQRTDYWDFDVWGSGTQVTVSSASTKGPSVFPLAPSSKSTSGGTAALGCLVKDYFPEPVTVSWNSGALTSGVHTFPAVLQSSGLYSLSSVVTVPSSSLGTQTYICNVNHKPSNTKVDKKVEPKSCDKTHTCPPCPAPELLAGPDVFLFPPKPKDTLMISRTPEVTCVVVDVSHEDPEVKFNWYVDGVEVHNAKTKPREEQYNSTYRVVSVLTVLHQDWLNGKEYKCKVSNKALPLPEEKTISKAKGQPREPQVYTLPPSREEMTKNQVSLTCLVKGFYPSDIAVEWESNGQPENNYKTTPPVLDSDGSFFLYSKLTVDKSRWQQGNVFSCSVLHEALHSHYTQKSLSLSPGK
light: DIQMTQSPSSLSASVGDTVTITCQANGYLNWYQQRRGKAPKLLIYDGSNLERGVPSRFSGRRWGQEYTLTISSLQPEDIATYFCQVYEFVTPGTRLDIKRTVAAPSVFIFPPSDEQLKSGTASVVCLLNNFYPREAKVQWKVDNALQSGNSQESVTEQDSKDSTYSLSSTLTLSKADYEKHKVYACEVTHQGLSSPVTKSFNRGEC
Turning to B5, the “ELISA A450” value with BSA was found to be 0.06 A450; in the test with gp120 Bal, 0.81 A450; in the test with gp120 SHIV SF162 P3 it was 0.71 A450; in the test with gp120 CAAN, 0.86 A450.

B6: 1.32.33-1 (antibody, human IgG1, kappa)
heavy: QVQLVQSGAEVTKPGASVRVSCEASGYNIRDYFIHWWRQAPGQGLQWVGWINPKTGQPNNPRQFQGRVSLTRHASWDFDTFSFYMDLKALRSDDTAVYFCARQRTDYWDFDVWGSGTQVTVSSASTKGPSVFPLAPSSKSTSGGTAALGCLVKDYFPEPVTVSWNSGALTSGVHTFPAVLQSSGLYSLSSVVTVPSSSLGTQTYICNVNHKPSNTKVDKKVEPKSCDKTHTCPPCPAPELLAGPDVFLFPPKPKDTLMISRTPEVTCVVVDVSHEDPEVKFNWYVDGVEVHNAKTKPREEQYNSTYRVVSVLTVLHQDWLNGKEYKCKVSNKALPLPEEKTISKAKGQPREPQVYTLPPSREEMTKNQVSLTCLVKGFYPSDIAVEWESNGQPENNYKTTPPVLDSDGSFFLYSKLTVDKSRWQQGNVFSCSVLHEALHSHYTQKSLSLSPGK
light: DIQMTQSPSSLSASVGDTVTITCQANGYLNWYQQRRGKAPKLLIYDGSNLERGVPSRFSGRRWGQEYTLTISSLQPEDIATYFCQVYEFVVPGTNLDIKRTVAAPSVFIFPPSDEQLKSGTASVVCLLNNFYPREAKVQWKVDNALQSGNSQESVTEQDSKDSTYSLSSTLTLSKADYEKHKVYACEVTHQGLSSPVTKSFNRGEC
As for B6, the “ELISA A450” value worked out at 0.06 A450 with BSA, 0.93 A450 with gp120 Bal, 0.71 A450 with gp120 SHIV SF162 P3 and 0.68 A450 with gp120 CAAN.

B7: 1.33.31-1 (antibody, human IgG1, kappa)
heavy: QVQLVQSGAEVKKPGASVRVSCKASGYNIRDYFIHWWRQAPGQGLQWVGWINPKTGQPNNPRQFQGRVTLTRHASWDFDTFSFYMDLKALRSDDTATYFCARQRSDYWDFDVWGSGTQVTVSSASTKGPSVFPLAPSSKSTSGGTAALGCLVKDYFPEPVTVSWNSGALTSGVHTFPAVLQSSGLYSLSSVVTVPSSSLGTQTYICNVNHKPSNTKVDKKVEPKSCDKTHTCPPCPAPELLAGPDVFLFPPKPKDTLMISRTPEVTCVVVDVSHEDPEVKFNWYVDGVEVHNAKTKPREEQYNSTYRVVSVLTVLHQDWLNGKEYKCKVSNKALPLPEEKTISKAKGQPREPQVYTLPPSREEMTKNQVSLTCLVKGFYPSDIAVEWESNGQPENNYKTTPPVLDSDGSFFLYSKLTVDKSRWQQGNVFSCSVLHEALHSHYTQKSLSLSPGK
light: DIQMTQSPSSLSASVGDTVTITCQANGYLNWYQQRRGKAPKLLIYDGSKLERGVPSRFSGRRWGQEYTLTISSLQPEDIATYFCQVYEFVVPGTNLDLKRTVAAPSVFIFPPSDEQLKSGTASVVCLLNNFYPREAKVQWKVDNALQSGNSQESVTEQDSKDSTYSLSSTLTLSKADYEKHKVYACEVTHQGLSSPVTKSFNRGEC
Take B7: the “ELISA A450” value in the test with BSA came to 0.07 A450; with gp120 Bal it was 0.92 A450; with gp120 SHIV SF162 P3 it was 0.89 A450; with gp120 CAAN it was 1.18 A450.

B8: 1.33.33-1 (antibody, human IgG1, kappa)
heavy: QVQLVQSGAEVKKPGASVRVSCKASGYNIRDYFIHWWRQAPGQGLQWVGWINPKTGQPNNPRQFQGRVTLTRHASWDFDTFSFYMDLKALRSDDTATYFCARQRSDYWDFDVWGSGTQVTVSSASTKGPSVFPLAPSSKSTSGGTAALGCLVKDYFPEPVTVSWNSGALTSGVHTFPAVLQSSGLYSLSSVVTVPSSSLGTQTYICNVNHKPSNTKVDKKVEPKSCDKTHTCPPCPAPELLAGPDVFLFPPKPKDTLMISRTPEVTCVVVDVSHEDPEVKFNWYVDGVEVHNAKTKPREEQYNSTYRVVSVLTVLHQDWLNGKEYKCKVSNKALPLPEEKTISKAKGQPREPQVYTLPPSREEMTKNQVSLTCLVKGFYPSDIAVEWESNGQPENNYKTTPPVLDSDGSFFLYSKLTVDKSRWQQGNVFSCSVLHEALHSHYTQKSLSLSPGK
light: DIQMTQSPSSLSASVGDTVTITCQANGYLNWYQQRRGKAPKLLIYDGSNLERGVPSRFSGRRWGQEYTLTISSLQPEDIATYFCQVYEFVVPGTNLDIKRTVAAPSVFIFPPSDEQLKSGTASVVCLLNNFYPREAKVQWKVDNALQSGNSQESVTEQDSKDSTYSLSSTLTLSKADYEKHKVYACEVTHQGLSSPVTKSFNRGEC
As to B8, the “ELISA A450” value in the test with BSA worked out at 0.07 A450; with gp120 Bal it was 1.09 A450; with gp120 SHIV SF162 P3 it was 0.97 A450; in the test with gp120 CAAN, 1.06 A450.
